Consider one molecule from patent WO2010028797A1 (dated 2010).

The assay addresses human CCR5 (human, UniProt P51681 1-352). Nature of the assay: cell-based or functional assay.

Sequence of human CCR5 (P51681 whole entry): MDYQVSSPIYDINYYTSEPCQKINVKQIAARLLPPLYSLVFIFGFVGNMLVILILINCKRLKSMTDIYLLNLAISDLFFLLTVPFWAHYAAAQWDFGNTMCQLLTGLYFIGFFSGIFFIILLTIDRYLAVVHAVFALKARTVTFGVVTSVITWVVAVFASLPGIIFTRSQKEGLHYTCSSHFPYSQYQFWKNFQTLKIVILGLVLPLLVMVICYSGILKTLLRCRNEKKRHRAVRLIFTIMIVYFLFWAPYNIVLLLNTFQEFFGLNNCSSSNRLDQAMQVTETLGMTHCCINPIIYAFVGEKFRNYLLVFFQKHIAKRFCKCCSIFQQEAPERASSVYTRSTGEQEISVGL

B1: BN-1000 (antibody, V domains shown)
VH: QVQLKQSGPGLVRPSQSLSITCTVSGFPLGIFGVHWVRQSPGKGLEWLGVIWKGGNTDYNAAFMSRLRITKDNSKSQVFFRMNSLQTDDTAIYYCAKVNLADAMDYWGQGTSVIVSS
VL: DIQMTQSPASLSASVGETVTITCRASGNIHGYLAWFQQKQGKSPQLLVYNTKTLAEGVPSRFSGSGSGTQFSLKINSLQPEDFGNYYCQHHYDLPRTFGGGTKLEIK
In the case of B1, the “IC50, antiviral assay in PBMC (HIV-1 NLBaL, p24 ELISA)” value came to 1.08 nM.
